Assay results published in patent publication US20190010237A1 (AbbVie / Abbott, published 2019).
Values belong to the binder of their own block, whether it stands above or below them.

What was measured:
[1] = molecular target: T1, Human PRLR expressed on HEK-293 cells (human, UniProt P16471 25-622); test: FACS titration on PRLR-expressing HEK-293 cells (293hPRLR), MFI against Ab (nM)
T1 construct: also called PRLR-expressing HEK-293 cells; HEK293/Human PRLR
T1 sequence: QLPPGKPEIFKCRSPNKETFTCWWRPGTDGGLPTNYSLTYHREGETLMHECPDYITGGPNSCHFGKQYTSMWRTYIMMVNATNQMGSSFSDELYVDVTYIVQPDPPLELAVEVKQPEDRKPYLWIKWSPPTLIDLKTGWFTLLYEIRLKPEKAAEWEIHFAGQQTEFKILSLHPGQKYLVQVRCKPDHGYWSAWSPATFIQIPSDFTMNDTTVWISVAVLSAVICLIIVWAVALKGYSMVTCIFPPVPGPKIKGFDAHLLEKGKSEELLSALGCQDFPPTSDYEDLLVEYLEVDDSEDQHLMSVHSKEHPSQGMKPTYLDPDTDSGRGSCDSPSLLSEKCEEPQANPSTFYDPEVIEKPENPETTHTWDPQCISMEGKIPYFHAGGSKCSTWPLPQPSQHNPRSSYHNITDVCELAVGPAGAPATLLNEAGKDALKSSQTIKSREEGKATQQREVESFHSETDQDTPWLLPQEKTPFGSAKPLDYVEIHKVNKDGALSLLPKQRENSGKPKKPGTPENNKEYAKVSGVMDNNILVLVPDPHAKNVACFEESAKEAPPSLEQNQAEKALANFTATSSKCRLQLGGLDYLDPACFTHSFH

[2] = molecular target: T2, PRLR (prolactin receptor, as named in the kinetics and crystallography paragraph) (UniProt P16471 25-234, limits assumed); test: kinetic measurement, method not named
T2 construct: The paragraph says only 'PRLR'
T2 sequence (looked up): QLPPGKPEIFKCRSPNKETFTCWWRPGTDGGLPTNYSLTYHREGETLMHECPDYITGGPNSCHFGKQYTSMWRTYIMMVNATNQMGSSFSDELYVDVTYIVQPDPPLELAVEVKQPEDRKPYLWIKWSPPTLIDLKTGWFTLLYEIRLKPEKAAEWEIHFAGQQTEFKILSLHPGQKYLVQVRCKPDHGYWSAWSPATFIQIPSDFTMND

EC50 [1]: 0.29 nM
Kd [2]: 0.46 nM
koff [2]: 0.000623 s⁻¹
B1: h16f humanized anti-PRLR antibody (antibody, human IgG1, kappa)
heavy: not shown
light: DIQMTQSPSSVSASVGDRVTITCKASQYVGTAVAWYQQKPGKSPKLLIYSASNRYTGVPSRFSDSGSGTDFTLTISSLQPEDFATYFCQQYSSYPWTFGGGTKVEIKRTVAAPSVFIFPPSDEQLKSGTASVVCLLNNFYPREAKVQWKVDNALQSGNSQESVTEQDSKDSTYSLSSTLTLSKADYEKHKVYACEVTHQGLSSPVTKSFNRGEC
notes: Humanized IgG1; also called antibody h16f; parental h16f

EC50 [1]: 0.5 nM
B2: h16e anti-PRLR antibody (antibody, human IgG1, kappa)
heavy: not shown
light: DIQMTQSPSSLSASVGDRVTITCRASENIYSYLAWYQQKPGKPPKLLVYNAKTLAEGVPSRFSGSGSGTDFTLTISSLQPEDFATYYCQHHYATPFTFGQGTKLEIKRTVAAPSVFIFPPSDEQLKSGTASVVCLLNNFYPREAKVQWKVDNALQSGNSQESVTEQDSKDSTYSLSSTLTLSKADYEKHKVYACEVTHQGLSSPVTKSFNRGEC

Kd [2]: 1.3 nM
koff [2]: 0.0011 s⁻¹
B3: anti-PRLR antibody LFA-102 (Novartis) (antibody, V domains shown)
VH: EVQLVESGGGLVQPGGSLRLSCAVSGFTFSSYGMSWVRQAPGKRLEWVATVSSGGTYTYYPDSVKGRFTISRDNSKNTLYLQMNSLRAEDTAMYYCARHRGNYYATYYYAMDYWGQGTLVTVSS
VL: DIVLTQSPDSLAVSLGERATINCKASKSVSTSGYTYMHWYQQKPGQPPKLLIYLASNRESGVPDRFSGSGSGTDFTLTISPVQAEDVATYYCQHSGELPPSFGQGTKLEIKR
